From the supplement of paper PMC12042874 come the findings set out here.

± gives the uncertainty stated by the source.

This data set is described as follows: amyloid nucleation score (Sup35N fusion, yeast selection) (log enrichment); library NNK1; higher = more nucleation; inactive = no reads after selection. In a few lines: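 Using DiMSum, nucleation scores were taken as the log enrichment of output over input reads, centred on the mode score of non-aggregating sequences. The input and output reads came from Illumina sequencing of plasmid inserts, with sequences under 100 input reads excluded. The yeast were psi-negative, expressed Sup35N fused to peptides of 20 random codons, were induced with 100 μM copper sulfate for 24 hours, and were grown 7 days at 30°C on medium lacking adenine and uracil.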
Substance GFFLSPLVRIISMTEMKVMK returned an amyloid nucleation score of 0.571 ± 1.2.

GFGSMLVEVTLYSAVAVAAR registered an amyloid nucleation score of 0.852 ± 0.52.

For the substance GFGWLCYCGPYNLGRFSLSV, the amyloid nucleation score is -0.124 ± 0.66.

On to GFLNYHWAGSYFERGM, for which the amyloid nucleation score came to 3.04 ± 0.13. As for GFPSRSIHFKLYLAANMQ, the amyloid nucleation score worked out at 1.07 ± 0.53. Consider GFSMTKCAYTNTH, for which the amyloid nucleation score came to 1.68 ± 0.17. In the case of GFVGFTGF it was 0.308 ± 0.77; in that of GGDRGHMFGMKSATVRWLAY, 0.572 ± 0.45; in that of GGESQFLGFTHCKLAFCSWW, 0.236 ± 0.5. For GGFFALTYVWSHVHRWS, the amyloid nucleation score entry was “inactive”. For the substance GGFHYAVDWSCLRNIVWADL, the amyloid nucleation score is -1.2 ± 2.4. On to GGLCTLVVAVGDSWIDRR, for which the amyloid nucleation score was -0.34 ± 0.43. GGLRWRRCFLP registered an amyloid nucleation score of -1.58 ± 0.93. Turning to GGQFHEEFSNEINEVQDCVL, the amyloid nucleation score was -0.15 ± 0.75. For GGQSS the value was 2.97 ± 0.16; for GGRSS, -0.058 ± 0.58. Consider GGSDFWIGN, for which the amyloid nucleation score turned out to be 0.277 ± 0.48.

In turn, GGTNFKDDDV came in with an amyloid nucleation score of 0.683 ± 1.

In the case of GGTRDVFEFHNSDTPDAVYQ, the amyloid nucleation score is -0.043 ± 0.3. GGVGLDWLEVVFVCTRGQYD: the amyloid nucleation score result was “inactive”. GGYWWQDRRHGPILYLVFWA came in with an amyloid nucleation score of 0.552 ± 0.34.

In turn, GHHLSVWRSNSCSCVWSITD showed an amyloid nucleation score of -0.184 ± 0.4. GHLENPFDERASCWRITADG gave an amyloid nucleation score of 1.25 ± 0.74.

GHTVVSSWALNFEYGFQLGY showed an amyloid nucleation score of 0.05 ± 0.5.

In the case of GIGFNHVSHLVKENS, the amyloid nucleation score is -0.192 ± 0.97. GIHSLFMVAIYFAYWLRKWV had an amyloid nucleation score of -0.877 ± 1.6. For GIISASSVNTQRWTSGTNTC the value was “inactive”; for GIKFNWENLARVLESNVFF, 1.53 ± 0.46. For GILFVFFQYF, the amyloid nucleation score worked out at 1.95 ± 0.15. GIRMRGVSDLSLLRM registered an amyloid nucleation score of 0.163 ± 0.77. Substance GIRMRSKNYGSWWFPLLYGE showed an amyloid nucleation score of 0.827 ± 0.84. GIRPPGKCMGWYLHMKFQSS: the amyloid nucleation score is -0.391 ± 0.59. As to GISGLVLSYGADSGPGTWGK, the amyloid nucleation score was -0.63 ± 0.42. GIVGGDQYMLFNLYVGFSYP registered an amyloid nucleation score of 1.45 ± 0.15.

GIVRVKSTCERSPDSATYDL: the amyloid nucleation score is -0.205 ± 0.91. In the case of GIWIRVSLAMRVTTSRRLGN it was 2.57 ± 0.17; in that of GIYNLHQFTCLFEAAAIACD, -0.478 ± 0.79. In the case of GIYSFGLCVGDIS it was -0.623 ± 0.34. As to GKERCDRMNKTLFLTFSYII, the amyloid nucleation score is -0.281 ± 0.71. Consider GKHSLSPVYLWYGNNY, for which the amyloid nucleation score was found to be 0.707 ± 0.52. Regarding GKKAYALGMSYLESCL, the amyloid nucleation score worked out at 1.37 ± 0.73. In the case of GKLSDINCLYSSDSLGCLGL it was 0.815 ± 0.9; in that of GKMLFRGSGIRPCGALIGVK, -0.561 ± 1.1. For GKRLQ the value was -0.249 ± 1.2; for GKRSDIVLMLLIEMGHMLSQ, 3.1 ± 0.13; for GKTRK, -0.782 ± 1.7. GLDCVRGNQWVNQGVL showed an amyloid nucleation score of 2.32 ± 0.15.

Substance GLEDRNRWKVWFITLCRGIA returned an amyloid nucleation score of 0.71 ± 1.1. Take GLETNNLARLVCGSRCFLSD: the amyloid nucleation score is -0.894 ± 2.4.

Take GLFFNNKYA: the amyloid nucleation score is 0.54 ± 0.84. Consider GLFTVNDV, for which the amyloid nucleation score was 0.374 ± 0.36. Turning to GLGLCRVE, the amyloid nucleation score was -0.373 ± 0.38. Substance GLGTAYIGLCWHTIWHAAGV showed an amyloid nucleation score of 1.46 ± 0.16. Regarding GLLGGIGRRRTMG, the amyloid nucleation score is -0.643 ± 0.46.

On to GLLIGDT, for which the amyloid nucleation score is 0.437 ± 0.48.

Regarding GLMLHCGGLCWLLVVV, the amyloid nucleation score was -0.539 ± 0.41. Substance GLNSDGLWLLSLNTRKSRAH showed an amyloid nucleation score of -0.349 ± 1.1. GLRTLEPYRYVIIMVPGQVA registered an amyloid nucleation score of -0.164 ± 0.68.

Turning to GLSTMQCVNICFWSYVTW, the amyloid nucleation score came out at 1.37 ± 0.26.

GLSVFSCQFFFNSTAFFSVN yielded an amyloid nucleation score of 6.061 ± 0.06. In the case of GLSWGIFALDTRSPGILRSV it was -0.436 ± 0.35. In the case of GLTKYV it was -0.462 ± 0.28; in that of GLVFWNIYCRNFYLL, 6.83 ± 0.078; in that of GLVLTIWHLRTAEERIVYRA, 1.58 ± 0.26. The substance GLVVIGRSCDDYESIMTRSM came in with an amyloid nucleation score of 0.171 ± 0.41. Take GLWHAC: the amyloid nucleation score result was “inactive”.

In the case of GLYIFYLSNWLFHPRF, the amyloid nucleation score worked out at 0.339 ± 0.43.

GLYSTGNFDVGRSLCDHMGS registered an amyloid nucleation score of -0.492 ± 1.1. In the case of GLYYSFRFYTFSVYRALRGS it was -0.392 ± 1.1.

Consider GMCPLNRNGGFGNGVVEGVV, for which the amyloid nucleation score was determined as 0.166 ± 1.6. Take GMDCH: the amyloid nucleation score is -0.175 ± 0.25. Regarding GMLISTSIMHNES, the amyloid nucleation score worked out at 0.164 ± 0.4. With GMQIKYNLCSRKTLVENGIS, the amyloid nucleation score came to 3.48 ± 0.12. GMSGYKKFCSGIWWSLNQCS registered an amyloid nucleation score of 0.408 ± 0.42. For the substance GNICSTLAINVGLIFSKECV, the amyloid nucleation score entry was “inactive”. The substance GNLLRTSIDRLLYSWSTIVV had an amyloid nucleation score of -0.187 ± 0.46. The substance GNLVCGCVVLQIMHIERGMA gave an amyloid nucleation score of 7.481 ± 0.046. GNMSPFKNLTFAEQLDAPRD: the amyloid nucleation score was determined as 0.016 ± 1.2.

The substance GNVIGGNMVVQWYSFCTVCV had an amyloid nucleation score of 6.342 ± 0.062. For the substance GNVSDYVVMIGVMVSLPCLI, the amyloid nucleation score is -0.222 ± 0.56. GNVYVKISVTVFADDYVLRV showed an amyloid nucleation score of 3.81 ± 0.11. For the substance GNYSG, the amyloid nucleation score entry was “inactive”. In the case of GNYSIARGLKNDKWCFFSSY it was -0.234 ± 1.6; in that of GNYTS, -0.894 ± 0.59. Regarding GPALTHTHS, the amyloid nucleation score is 0.306 ± 0.63. In turn, GPDINSCRSCFSWYIVWFLV showed an amyloid nucleation score of 0.318 ± 0.7. Consider GPSLGVIFKEIWFYYG, for which the amyloid nucleation score is 0.541 ± 0.3.

Regarding GQAWCTLTCRGTGPSQLGWV, the amyloid nucleation score is -0.508 ± 0.57. As to GQDSGSSNVFSSCICNLHVF, the amyloid nucleation score amounted to 7.715 ± 0.046. Consider GQFEHGVGVQQSSGSTQRWL, for which the amyloid nucleation score was -1.21 ± 2.4. Take GQFSRSCGTVHNQSVYRRCL: the amyloid nucleation score was 1.5 ± 0.48. Regarding GQKVMIAHGTQETIHGGCCG, the amyloid nucleation score was -0.275 ± 0.49. In the case of GQNLGRSRLGNVYRGPCGNC it was -0.095 ± 1.1. Consider GQQLCVIFYSTCDSYKMLSD, for which the amyloid nucleation score came to 3.26 ± 0.089. As to GQSYRRNIMCTSFLWLGNRN, the amyloid nucleation score is 1.05 ± 0.53. GQTVNCNATYFSVTIVGIVG: the amyloid nucleation score is 2.8 ± 0.13.

Substance GRCLCGLVDDYFYNAYWVLP had an amyloid nucleation score of -0.555 ± 0.35. In the case of GRECLRCTFKMVGWVATEIA, the amyloid nucleation score is -0.521 ± 0.71.

With GRGQWQPAFTKLPYLILSVV, the amyloid nucleation score is -0.152 ± 0.94. The substance GRGRKVYLVDLGSGL showed an amyloid nucleation score of -0.285 ± 0.53.

GRIYLVWVDSTCRRVCKTLV yielded an amyloid nucleation score of 0.082 ± 0.29. In the case of GRNTGFFHFLWLFRYVTLVM, the amyloid nucleation score is -1.58 ± 1.7. Take GRPFALRWLDLGLLTDDPKG: the amyloid nucleation score is -0.164 ± 0.32. On to GRSFYNCPPLRIHCLCIMEV, for which the amyloid nucleation score was 0.557 ± 0.68. As for GRSLY, the amyloid nucleation score was -0.413 ± 0.46. Regarding GSCGYSTVVDVVCYLDLLLI, the amyloid nucleation score was 0.131 ± 0.43. As to GSELGIKRTLSLFICLWIIG, the amyloid nucleation score was -0.731 ± 0.36. On to GSFYSGI, for which the amyloid nucleation score came out at 1.6 ± 0.76. Regarding GSGKCVPGDTELAILGLKR, the amyloid nucleation score is 0.299 ± 0.7. Substance GSIERFTFISVYYRLTPLSG came in with an amyloid nucleation score of -0.035 ± 0.54.

Regarding GSKGMGSERQVECFTKI, the amyloid nucleation score was -0.505 ± 0.37. For GSLLLMGRTMDVYQNRHFFH the value was 0.651 ± 0.28. With GSLPIRNTFTWGEL, the amyloid nucleation score result was “inactive”. Regarding GSNDPSVLTAVVLMLLKHRG, the amyloid nucleation score stood at 2.04 ± 0.35. For the substance GSNGMRGLRWGL, the amyloid nucleation score was -0.485 ± 0.31. For GSRSLLQR the value was -1.06 ± 1.2; for GSRYHEECRWTCREAPTDAR, -1.07 ± 1.6. In turn, GSVCRCSDAPVSFRVGNSVG gave an amyloid nucleation score of -0.078 ± 0.27.

In turn, GSVLKLYRGITHSRNERRGP returned an amyloid nucleation score of -0.171 ± 1.1. In the case of GSWATVWVVKDPEVADCCGL it was -1.53 ± 1.6; in that of GSWNALRLRCVNVVRTGVMN, -0.496 ± 0.59; in that of GSYGLDGILDQWTPLHSLGG, 0.64 ± 0.46.

GSYRLKCCTYLVGKY had an amyloid nucleation score of 1.73 ± 0.28. Regarding GTCYGCLLILVCSLFGSTTG, the amyloid nucleation score was 1.12 ± 0.66. For GTNFS the value was 0.498 ± 0.97; for GTRVR, 1.51 ± 0.48; for GTSSYMV, -0.01 ± 0.23.

For GTVSDGMSVIRVKGMRWSDY, the amyloid nucleation score is 1.13 ± 0.73. The substance GTYFSGIVVVFLVGVLAR yielded an amyloid nucleation score of -0.207 ± 0.49. For GVDGYDLRGLSWEVAKEFKS the value was 0.73 ± 0.67; for GVGIFAIYWFTMPHVRPRVI, -1.13 ± 1; for GVGVLLSYSELFDSTIEGPT, 0.664 ± 0.59.

In turn, GVISAGYFAGYETKLLLKGD came in with an amyloid nucleation score of 0.983 ± 0.97.

For GVKFNSDMSCQFRRVLVEIA, the amyloid nucleation score is -0.057 ± 1.7.

Substance GVKSQYALNKLGCGELWLRL registered an amyloid nucleation score of 0.364 ± 0.28. GVMGYFVC had an amyloid nucleation score of -0.405 ± 0.27. For GVMRKNMNKAWFTRDIDSF the value was 0.752 ± 0.41; for GVRETHLPSMLRRTALRFTF, 0.026 ± 0.36; for GVRMLGFVRV, 0.261 ± 0.2. For GVVACLFFWVRAFFYR the value was “inactive”.
